The target in data set [1] is DARPin 1800. In words: ITC; target proteins (p53 family domains) titrated to constant concentrations of DARPin; 25 °C; 50 mM HEPES pH 7.4, 150 mM NaCl, 0.5 mM TCEP; MicroCal VP-ITC. Background: In ITC the heat of successive injections is recorded.
Data set [2] concerns the target DARPin 1800. In words: crystal structure; complex of DARPin and p73 domain mixed from purified proteins, isolated by SEC; sitting drop at 20 °C, 30% PEG2000MME, 0.15 M potassium bromide. Conditions: scale: DARPin 1800 per p73 OD. (SEC sorts molecules by how far they enter the pores of the column.)
Data set [3] concerns the molecule itself. The data set is described as above.
The target of data set [4] is DARPin B9. The experiment in a line: ITC; target proteins (p53 family domains) titrated to constant concentrations of DARPin; 25 °C; 50 mM HEPES pH 7.4, 150 mM NaCl, 0.5 mM TCEP; MicroCal VP-ITC.
Data set [5] deals with DARPin B9. In words: crystal structure; complex of DARPin and p73 domain mixed from purified proteins, isolated by SEC; sitting drop at 20 °C, 30% PEG2000MME, 0.15 M potassium bromide.
Data set [6] addresses DARPin 1800 LZ (DARPin 1800 dimerized via a leucine zipper) (yeast) (UniProt P03069). The experiment in a line: ITC; target proteins (p53 family domains) titrated to constant concentrations of DARPin; 25 °C; 50 mM HEPES pH 7.4, 150 mM NaCl, 0.5 mM TCEP; MicroCal VP-ITC.
In data set [7] the target is DARPin 1800–1800 (DARPin 1800 fused to another DARPin 1800 via a (G4S)4 linker). The data set is described as above.
For data set [8], the target named is DARPin B9 LZ (DARPin B9 dimerized via a leucine zipper) (yeast) (UniProt P03069). The data set is described as above.
Data set [9] concerns the target DARPin B9-B9 (DARPin B9 fused to another DARPin B9 via a (G4S)4 linker). The data set is described as above.

B1: p73 oligomerization domain (aa 351–398 of TAp73α) (domain or fragment, UniProt O15350 351-398, looked up)
chain: DEDTYYLQVRGRENFEILMKLKESLELMELVPQPLVDSYRQQQQLLQR
The term Kd denotes a measure of binding affinity in units of concentration. By stoichiometry N is commonly meant the number of molecules, sites or subunits per partner or assembly. Take B1: in the data set with DARPin 1800 [1], the Kd was found to be 94.5 nM. The stoichiometry N with DARPin 1800 [2] came out at 2. Moreover, in data set [3], the binding result is listed as “binds”.

B2: p73 SAM domain (aa 489–550 of TAp73α) (domain or fragment)
chain: ADPSLVSFLTGLGCPNCIEYFTSQGLQSIYHLQNLTIEDLGALKIPEQYRMTIWRGLQDLKQ
Molecule B2 came in with a Kd with DARPin B9 [4] of 58.8 nM. The stoichiometry N (p73 SAM domain per DARPin B9) with DARPin B9 [5] was 1.

B3: p73 DBD-OD-SAM (amino acids 112–550 of TAp73α) (domain or fragment)
chain: APVIPSNTDYPGPHHFEVTFQQSSTAKSATWTYSPLLKKLYCQIAKTCPIQIKVSTPPPPGTAIRAMPVYKKAEHVTDVVKRCPNHELGRDFNEGQSAPASHLIRVEGNNLSQYVDDPVTGRQSVVVPYEPPQVGTEFTTILYNFMCNSSCVGGMNRRPILIIITLEMRDGQVLGRRSFEGRICACPGRDRKADEDHYREQQALNESSAKNGAASKRAFKQSPPAVPALGAGVKKRRHGDEDTYYLQVRGRENFEILMKLKESLELMELVPQPLVDSYRQQQQLLQRPSHLQPPSYGPVLSPMNKVHGGMNKLPSVNQLVGQPPPHSSAATPNLGPVGPGMLNNHGHAVPANGEMSSSHSAQSMVSGSHCTPPPPYHADPSLVSFLTGLGCPNCIEYFTSQGLQSIYHLQNLTIEDLGALKIPEQYRMTIWRGLQDLKQ
For B3, the Kd was found to be 4 nM in data set [6]; 67 nM with DARPin 1800 [1]; 13 nM in data set [7]; 64 nM in data set [8]; 46 nM in data set [9]; 309 nM with DARPin B9 [4].

The record behind these values is publication PMC11655841 (Cell Death & Disease, 2024).
